Measured values as given in paper PMC10765524, “Cryo-EM structures of PP2A:B55–FAM122A and PP2A:B55–ARPP19” (Nature, 2023).
Substitutions are numbered along the chain they refer to. Names may count otherwise.

T1: ARPP19(S10C) labelled with Alexa Fluor 488 (ARPP19-tracer) (UniProt P56211 1-112, S10C, Alexa Fluor 488 C5 Maleimide label)
T1 construct: ARPP19, S10C; source: E. coli BL21 (DE3), purified; labelled, recovered by analytical SEC; not shown: His6, N-terminal, cleaved; MBP, N-terminal, cleaved
T1 sequence (looked up): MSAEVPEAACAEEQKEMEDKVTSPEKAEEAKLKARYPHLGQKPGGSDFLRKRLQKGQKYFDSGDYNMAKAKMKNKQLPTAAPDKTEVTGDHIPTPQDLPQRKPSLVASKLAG

T2: cAMP regulated phosphoprotein 19 (ARPP19), unphosphorylated (UniProt P56211 1-112)
T2 construct: 15N-labelled in the NMR experiments; source: E. coli BL21 (DE3), purified (HisTrap, TEV cleavage, Ni-NTA, heat, SEC); not shown: His6, N-terminal, cleaved; MBP, N-terminal, cleaved
T2 sequence (looked up): T1 sequence (looked up) with C10S

T3: YFP–ARPP19 K55A (UniProt P56211 1-112, K55A)
T3 construct: ARPP19; source: HeLa, transiently transfected, in lysate
T3 sequence (looked up): T1 sequence (looked up) with C10S, K55A

T4: YFP–ARPP19 R50A (UniProt P56211 1-112, R50A)
T4 construct: ARPP19; source: HeLa, transiently transfected, in lysate
T4 sequence (looked up): T1 sequence (looked up) with C10S, R50A

T5: YFP–ARPP19 L53A (UniProt P56211 1-112, L53A)
T5 construct: ARPP19; source: HeLa, transiently transfected, in lysate
T5 sequence (looked up): T1 sequence (looked up) with C10S, L53A

T6: YFP–ARPP19 F48A (UniProt P56211 1-112, F48A)
T6 construct: ARPP19; source: HeLa, transiently transfected, in lysate
T6 sequence (looked up): T1 sequence (looked up) with C10S, F48A

T7: YFP–ARPP19 R52A (UniProt P56211 1-112, R52A)
T7 construct: ARPP19; source: HeLa, transiently transfected, in lysate
T7 sequence (looked up): T1 sequence (looked up) with C10S, R52A

T8: YFP–ARPP19 L49A (UniProt P56211 1-112, L49A)
T8 construct: ARPP19; source: HeLa, transiently transfected, in lysate
T8 sequence (looked up): T1 sequence (looked up) with C10S, L49A

B1: B55 loopless (B55LL) (domain or fragment)
chain: MAGAGGGNDIQWCFSQVKGAVDDDVAEADIISTVEFNHSGELLATGDKGGRVVIFQQEQENKIQSHSRGEYNVYSTFQSHEPEFDYLKSLEIEEKINKIRWLPQKNAAQFLLSTNDKTIKLWKISNGEASPRRIFANAHTYHINSISINSDYETYLSADDLRINLWHLEITDRSFNIVDIKPANMEELTEVITAAEFHPNSCNTFVYSSSKGTIRLCDMRASALCDRHSKLFEEPEDPSNRSFFSEIISSISDVKFSHSGRYMMTRDYLSVKIWDLNMENRPVETYQVHEYLRSKLCSLYENDCIFDKFECCWNGSDSVVMTGSYNNFFRMFDRNTKRDITLEASRENNKPRTVLKPRKVCASGKRKKDEISVDSLDFNKKILHTAWHPKENIIAVATTNNLYIFQDKVN
notes: linker that replaces B55 residues 126–164; source: Expi293F, purified (GFP-nanobody beads, TEV on-column cleavage, QTrap, SEC); not shown: GFP, N-terminal, cleaved
B2: B55 (subunit of the PP2A:B55 holoenzyme) (natural protein, UniProt P63151 1-447, looked up)
chain: MAGAGGGNDIQWCFSQVKGAVDDDVAEADIISTVEFNHSGELLATGDKGGRVVIFQQEQENKIQSHSRGEYNVYSTFQSHEPEFDYLKSLEIEEKINKIRWLPQKNAAQFLLSTNDKTIKLWKISERDKRPEGYNLKEEDGRYRDPTTVTTLRVPVFRPMDLMVEASPRRIFANAHTYHINSISINSDYETYLSADDLRINLWHLEITDRSFNIVDIKPANMEELTEVITAAEFHPNSCNTFVYSSSKGTIRLCDMRASALCDRHSKLFEEPEDPSNRSFFSEIISSISDVKFSHSGRYMMTRDYLSVKIWDLNMENRPVETYQVHEYLRSKLCSLYENDCIFDKFECCWNGSDSVVMTGSYNNFFRMFDRNTKRDITLEASRENNKPRTVLKPRKVCASGKRKKDEISVDSLDFNKKILHTAWHPKENIIAVATTNNLYIFQDKVN
notes: B55 regulatory subunit, printed as full-length B55 1–477; The B55 chain of m1, written alone for the contacts seen in the cryo-EM structures; also called B55WT; source: Expi293F, purified as part of PP2A:B55; not shown: GFP, N-terminal, cleaved
B3: B55, endogenous in HeLa cells (natural protein, human (endogenous in HeLa), UniProt P63151 1-447, looked up)
chain: B2 chain
notes: B55 detected with an antibody to B55α; also called B55α; source: endogenous, HeLa lysate
B4: FAM122AID I88A/K89A/S120C (domain or fragment, UniProt Q96E09 29-120, looked up)
chain: GGGLRRSNSAPLIHGLSDTSPVFQAEAPSARRNSTTFPSRHGLLLPASPVRMHSSRLHQAAQEEGMDLINRETVHEREVQTAMQISHSWEEC
modifications: Alexa Fluor 488 C5 Maleimide label (fluorescence polarization assay)
B5: FAM122AID R84A/L85A/S120C (domain or fragment, UniProt Q96E09 29-120, looked up)
chain: B4 chain with R56A, L57A, A60I, A61K
modifications: Alexa Fluor 488 C5 Maleimide label (fluorescence polarization assay)
B6: tpS62tpS104ARPP19 (ARPP19 thiophosphorylated by MASTL on Ser62 and Ser104) (natural protein, UniProt P56211 1-112, looked up)
chain: T1 sequence (looked up) with C10S
modifications: thiophosphoserine at 62 and 104
B7: tpS62ARPP19_(S104A) (singly thiophosphorylated ARPP19) (natural protein, UniProt P56211 1-112, looked up)
chain: T1 sequence (looked up) with C10S, S104A
modifications: thiophosphoserine at 62
notes: also called tpARPP19; S62 tpARPP19_(S104A); source: E. coli BL21 (DE3), purified; thiophosphorylated with MASTL kinase and ATP-γ-S; not shown: His6, N-terminal, cleaved; MBP, N-terminal, cleaved

Tests used:
[1] = molecular target: T1, ARPP19(S10C) labelled with Alexa Fluor …; experiment: fluorescence polarisation; PP2A:B55 (or B55LL) serially diluted into 0.1 nM Alexa Fluor 488 tracer (FAM122AID-tracer or ARPP19-tracer); 10 mM HEPES pH 7.0, 150 mM NaCl, 0.5 mM TCEP, 0.01% Triton X-100, 0.1 mg/ml BSA; 30 min at room temperature; conditions: both partners purified
[2] = molecular target: B6; experiment: NMR titration; 2D 1H,15N HSQC of 15N-labelled FAM122A or ARPP19 (2–6 μM) with an excess of unlabelled PP2A:B55 or B55LL; peak intensity loss; 283 K; NMR buffer pH 6.3, 150 mM NaCl; conditions: both partners purified
[3] = molecular target: T2, cAMP regulated phosphoprotein 19 …; experiment: as above; conditions: both partners purified
[4] = molecular target: T9, PP2Aa_(9–589) (scaffolding subunit of the PP2A:B55 holoenzyme) (UniProt P30153 9-589); experiment: cryo-EM structure; purified PP2A:B55 incubated with FAM122AID or tpARPP19 at a 1.5 molar ratio; CHAPSO added before vitrification; conditions: both partners purified
T9 construct: PP2Aa (PP2A scaffolding A subunit), residues 9-589; The PP2Aa chain of m1, written alone for the contacts seen in the cryo-EM structures; source: E. coli BL21 (DE3), purified (HisTrap, TEV cleavage, Ni-NTA, QTrap, SEC); not shown: His6, N-terminal, cleaved; MBP, N-terminal, cleaved

[5] = molecular target: T3, YFP–ARPP19 K55A; experiment: co-IP; YFP–ARPP19 variants transiently transfected into HeLa cells, precipitated with GFP-Trap beads at 4 °C in 50 mM Tris-HCl pH 7.5, 50 mM NaCl, 1 mM EDTA, 1 mM DTT, 0.1% NP40; western blot for B55α and PP2Ac; conditions: partners not purified
[6] = molecular target: T4, YFP–ARPP19 R50A; experiment: as above; conditions: partners not purified
[7] = molecular target: T5, YFP–ARPP19 L53A; experiment: as above; conditions: partners not purified
[8] = molecular target: T6, YFP–ARPP19 F48A; experiment: as above; conditions: partners not purified
[9] = molecular target: T7, YFP–ARPP19 R52A; experiment: as above; conditions: partners not purified
[10] = molecular target: T8, YFP–ARPP19 L49A; experiment: as above; conditions: partners not purified
[11] = molecular target: PP2A:B55 holoenzyme (PP2Aa, B55, PP2Ac) (UniProt P30153 9-589; P63151 1-447; P67775 1-309, C-terminal residue fully methylated (mLeu309)); experiment: cell-based or functional assay
[12] = molecular target: B2; experiment: cryo-EM structure; purified PP2A:B55 incubated with FAM122AID or tpARPP19 at a 1.5 molar ratio; CHAPSO added before vitrification; conditions: both partners purified

Sequence of PP2A:B55 holoenzyme (PP2Aa, B55, PP2Ac) (P30153 9-589, chain 1 of 2): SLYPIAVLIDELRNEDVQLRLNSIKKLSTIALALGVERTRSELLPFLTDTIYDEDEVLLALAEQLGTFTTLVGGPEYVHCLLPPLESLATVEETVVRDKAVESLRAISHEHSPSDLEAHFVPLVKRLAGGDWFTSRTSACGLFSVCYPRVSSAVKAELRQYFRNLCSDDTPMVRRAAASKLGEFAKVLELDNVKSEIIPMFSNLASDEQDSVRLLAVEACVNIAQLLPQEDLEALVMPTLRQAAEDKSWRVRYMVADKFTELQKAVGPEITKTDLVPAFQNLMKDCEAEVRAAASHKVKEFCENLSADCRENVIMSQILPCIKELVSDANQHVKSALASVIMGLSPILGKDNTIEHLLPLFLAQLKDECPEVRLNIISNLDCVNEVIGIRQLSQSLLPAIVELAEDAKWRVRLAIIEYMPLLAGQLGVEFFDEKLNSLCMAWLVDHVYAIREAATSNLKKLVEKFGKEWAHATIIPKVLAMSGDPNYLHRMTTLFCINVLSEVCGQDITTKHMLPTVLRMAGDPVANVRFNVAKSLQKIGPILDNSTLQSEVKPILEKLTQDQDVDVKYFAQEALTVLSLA
Sequence of PP2A:B55 holoenzyme (PP2Aa, B55, PP2Ac) (P67775 whole entry, chain 3 of 2): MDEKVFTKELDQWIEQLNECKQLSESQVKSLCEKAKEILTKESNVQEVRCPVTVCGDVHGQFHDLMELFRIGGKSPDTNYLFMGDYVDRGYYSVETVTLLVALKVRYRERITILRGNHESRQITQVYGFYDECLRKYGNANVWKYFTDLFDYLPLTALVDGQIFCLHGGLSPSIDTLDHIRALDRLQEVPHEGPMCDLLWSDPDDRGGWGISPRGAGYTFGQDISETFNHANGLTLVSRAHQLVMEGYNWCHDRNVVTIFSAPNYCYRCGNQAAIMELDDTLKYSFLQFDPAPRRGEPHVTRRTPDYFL
T9 sequence (P30153 9-589): as the sequence (P30153 9-589, chain 1 of 2) above

Binder: B1
- binding result [1]: binds
- binding result [2]: binds
- binding result [3]: binds

Binder: B2
- binding result [4]: binds

Binder: B3
- binding, percent of wild type [5]: ~75%
- binding, percent of wild type [6]: ~50%
- binding, percent of wild type [7]: < 25%
- binding, percent of wild type [8]: ~50%
- binding, percent of wild type [9]: < 25%
- binding, percent of wild type [10]: ~75%

Binder: B4
- IC50 of PP2A:B55 inhibition (DiFMUP), fold increase against wild type [11]: 48 fold

Binder: B5
- IC50 of PP2A:B55 inhibition (DiFMUP), fold increase against wild type [11]: 38 fold

Binder: B6
- potency of PP2A:B55 inhibition (DiFMUP) against that of FAM122A [11]: ~250 fold

Binder: B7
- binding result [12]: binds
